Test results: patent publication US20160272706A1 (AstraZeneca / MedImmune, published 2016)

What was measured:
Human IL-13 [1] = target: T1, Human IL-13 (human, UniProt P35225 35-146); assay: IC50 of the parent scFv divided by IC50 of the clone, biochemical receptor-ligand inhibition assay, purified scFv
T1 construct: also called human interleukin 13 (Peprotech); the antigen

Human IL-13 [2] = target: T1, Human IL-13; assay: biochemical receptor-ligand inhibition assay, purified scFv titrated; the IL-13 receptor used is not named in Example 1
Human IL-13 [3] = target: T1, Human IL-13; assay: IC50 of the parent scFv divided by IC50 of the clone, biochemical receptor-ligand inhibition assay, purified scFv (second panel)
Human IL-13 [4] = target: T1, Human IL-13; assay: biochemical receptor-ligand inhibition assay, purified scFv titrated (second panel); the IL-13 receptor used is not named in Example 1

T1 sequence (P35225 35-146 limits assumed): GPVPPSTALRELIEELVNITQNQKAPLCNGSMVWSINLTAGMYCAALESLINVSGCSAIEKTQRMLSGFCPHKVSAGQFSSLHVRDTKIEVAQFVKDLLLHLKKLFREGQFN

Row | Fld improvement (Human IL-13 [1]) | IC50 (Human IL-13 [2]) | Fld improvement (Human IL-13 [3]) | IC50 (Human IL-13 [4]) | Binder
1 | 6.12 fold | 6.63 nM | – | – | 13NG0067 (scFv, V domains shown, purified scFv from the mini-recombination library; member of group m20; also called ZZ0SEF-H04; copies: 1 + 1) VH: QVQLVQSGAEVKKPGASVKVSCKASGYTFTNYGLSWVRQAPGQGLEWMGWINYDGGNTQYGQEFQGRVTMTTDTSTSTAYMELRGLRSDDTAVYYCARDSSSSWARWFFDLWGRGTLVTVSS VL: SYVLTQPPSVSVAPGKTARIPCGGNMVGARLVHWYQQKPGQAPVLIIMDDIDRPSGIPERFSGSNSGNTATLTISRVEAGDEADYYCQVWDTGSSPVVFGGGTKLTVL
2 | 7.5 fold | 5.42 nM | – | – | 13NG0068 (scFv, V domains shown, purified scFv from the mini-recombination library; member of group m20; also called ZZ0SEB-B02; copies: 1 + 1) VH: QVQLVQSGAEVKKPGASVKVSCKASGYTFTNYGLSWVRQAPGQGLEWVGWINYDGGNTQYGQEFQGRVTMTTDTSTGTAYMELRSLRSDDTAVYYCARDSSSSWARWFFDLWGRGTLVTVSS VL: SYVLTQPPLVSVAPGKTARIPCGGNLIGARLVHWYQQKPGQAPVLIIMDDIDRPSGIPERFSGSNSGNTATLTISRVEAGDEADYYCQVWDTGSDPVVFGGGTKLTVL
3 | 5.18 fold | 7.85 nM | – | – | 13NG0069 (scFv, V domains shown, purified scFv from the mini-recombination library; member of group m20; also called ZZ0SEA-A03; copies: 1 + 1) VH: QVQLVQSGAEVKKPGASVKVSCKASGYTFTNYGLSWVRQAPGQGLEWMGWINYDGGNTQYGQEFQGRVTMTTDTSTSTAYMELRSLRSDDTAVYYCARDSSSSWARWFFDLWGRGTLVTVSS VL: SYVLTQPPSVSVAPGKTARIPCGGNMVGARLVHWYQQKPGQAPVLIIMDDIDRPSGIPERFSGSNSGNTATLTISRVEAGDEADYYCQVWDTGSRPVVFGGGTKLTVL
4 | 4.28 fold | 9.49 nM | – | – | 13NG0070 (scFv, V domains shown, purified scFv from the mini-recombination library; member of group m20; also called ZZ0SED-B06; copies: 1 + 1) VH: QVQLVQSGAEVKKPGASVKVSCKASGYTFTNYGLSWVRQAPGQGLEWMGWINYDGGNTQYGQEFQGRVTMTTDTSTSTAYMELRSLRSDDTAVYYCARDSSSSWARWFFDLWGRGTLVTVSS VL: SYVLTQPPSVSVAPGKTARIPCGGNMVGARLVHWYQQKPGQAPVLIVFDDEDRPSGIPERFSGSNSGNTATLTISRVEAGDEADYYCQVWDTGSRPVVFGGGTKLTVL
5 | 3.8 fold | 10.7 nM | – | – | 13NG0071 (scFv, V domains shown, purified scFv from the mini-recombination library; member of group m20; also called ZZ0SEE-A09; copies: 1 + 1) VH: QVQLVQSGAEVKKPGASVKVSCKASGYTFTNYGLSWVRQAPGQGLEWMGWINYDGGNTQYGQEFQGRVTMTTDTSTSTAYMELRSLRSDDTAVYYCARDSSSSWARWFFDLWGRGTLVTVSS VL: SYVLTQPPSVSVAPGKTARIPCGGNMVGARLVHWYQQKPGQAPVLIVFDDEDRPSGIPERFSGSNSGNTATLTISRVEAGDEADYYCQVWDTGSLPVVFGGGTKLTVL
6 | 3.16 fold | 12.8 nM | – | – | 13NG0072 (scFv, V domains shown, purified scFv from the mini-recombination library; member of group m20; also called ZZ0SEA-H11; copies: 1 + 1) VH: QVQLVQSGAEVKKPGASVKVSCKASGYTFTNYGLSWVRQAPGQGLEWMGWINYDGGNTQYGQEFQGRVTMTTDTSTSTAYMELRSLRSDDTAVYYCARDSSSSWARWFFDLWGRGTLVTVSS VL: SYVLTQPPSVSVAPGKTARIPCGGNMVGARLVHWYQQKPGQAPVLIVYDDMDRPSGIPERFSGSNSGNTATLTISRVETGDEADYYCQVWDTGSRPVVFGGGTKLTVL
7 | 4.21 fold | 9.65 nM | – | – | 13NG0075 (scFv, V domains shown, purified scFv from the mini-recombination library; member of group m20; also called ZZ0SEE-A06; copies: 1 + 1) VH: QVQLVQSGAEVKKPGASVKVSCKASGYTFTNYGLSWVRQAPGQGLEWMGWINYDGGNTQYGQEFQGRVTMTTDTSTSTAYMELRSLRSDDTAVYYCARDSSSSWARWFFDLWGRGTLVTVSS VL: SYVLTQPPSVSVAPGKTARIPCGGNMVGARLVHWYQQKPGQAPVLVIMDDIDRPSGIPERFSGSNSGNTATLTISRVEAGDEADYYCQVWDTGSRPVVFGGGTKLTVL
8 | 5.09 fold | 7.98 nM | – | – | 13NG0076 (scFv, V domains shown, purified scFv from the mini-recombination library; member of group m20; also called ZZ0SEA-F10; copies: 1 + 1) VH: QVQLVQSGAEVKKPGASVKVSCKASGYTFTNYGLSWVRQAPGQGLEWMGWINYDGGNTQYGQEFQGRVTMTTDTSTSTAYMELRSLRSDDTAVYYCARDSSSSWARWFFDLWGRGTLVTVSS VL: SYVLTQPPSVSVAPGKTARIPCGGNMVGARLVHWYQQKPGQAPVLVIMDDIDRPSGIPERFSGSNSGNTATLTISRVEAGDEADYYCQVWDTGSRPVVFGGGTKLTVL
9 | 3.93 fold | 10.3 nM | – | – | 13NG0077 (scFv, V domains shown, purified scFv from the mini-recombination library; member of group m20; also called ZZ0SED-A07; copies: 1 + 1) VH: QVQLVQSGAEVKKPGASVKVSCKASGYTFTNYGLSWVRQAPGQGLEWMGWINYDGGNTQYGQEFQGRVTMTTDTSTSTAYMELRSLRSDDTAVYYCARDSSSSWARWFFDLWGRGTLVTVSS VL: SYVLTQPPSVSVAPGKTARIPCGGNMVGAYLVHWYQQKPGQAPVLIVYDDMDRPSGIPERFSGSNSGNTATLTISRVEAGDEADYYCQVWDTGSSPVVFGGGTKLTVL
10 | – | – | 6.4 fold | 7.22 nM | 13NG0078 (scFv, V domains shown, purified scFv from the mini-recombination library; member of group m20; also called ZZ0SFL-G06; copies: 1 + 1) VH: QVQLVQSGAEVKKPGASVKVSCKASGYTFTNYGLSWVRQAPGQGLEWVGWINYDGGNTQYGQEFQGRVTMTTDTSTSTAYMELRSLRSDDTAVYYCARDSSSSWARWFFDLWGRGTLVTVSS VL: SYVLTQPPSVSVAPGKTARIPCGGNLIAARLVHWYQQKPGQAPVLIMFDDQDRPSGIPERFSGSNSGNTATLTISRVETGDEADYYCQVWDTGSLPVVFGGGTKLTVL
11 | – | – | 5.8 fold | 7.86 nM | 13NG0079 (scFv, V domains shown, purified scFv from the mini-recombination library; member of group m20; also called ZZ0SEA-B02; copies: 1 + 1) VH: QVQLVQSGAEVKKPGASVKVSCKASGYTFTNYGLSWVRQAPGQGLEWMGWINYDGGNTQYGQEFQGRVTMTTDTSTSTAYMELRSLRSDDTAVYYCARDSSSSWARWFFDLWGRGTLVTVSS VL: SYVLTQPPSVSVAPGKTARIPCGGNLIGARLVHWYQQKPGQAPVLIVYDDMDRPSGIPERFSGSNSGNTATLTISRVEAGDEADYYCQVWDTGSLPVVFGGGTKLTVL
12 | – | – | 4.1 fold | 11.2 nM | 13NG0080 (scFv, V domains shown, purified scFv from the mini-recombination library; member of group m20; also called ZZ0SEA-D07; copies: 1 + 1) VH: QAQLVQSGAEVKKPGASVKVSCKASGYTFTNYGLSWVRQAPGQGLEWMGWINYDGGNTQYGQEFQGRVTMTTDTSTSTAYMELRSLRSDDTAVYYCARDSSSSWARWFFDLWGRGTLVTVSS VL: SYVLTQPPSVSVAPGKTARIPCGGNLIAARLVHWYQQKPGQAPVLIVFDDEDRPSGIPERFSGSNSGNTATLTISRVETGDEADYYCQVWDTGSSPVVFGGGTKLTVL
13 | – | – | 5.2 fold | 8.9 nM | 13NG0081 (scFv, V domains shown, purified scFv from the mini-recombination library; member of group m20; the text gives two different numbers for the VH; also called ZZ0SE9-C11; copies: 1 + 1) VH: QVQLVQSGAEVKKPGASVKVSCKASGYTFTNYGLSWVRQAPGQGLEWVGWINYDGGNTQYGQEFQGRVTMTTDTSTSTAYMELRSLRSDDTAVYYCARDSSSSWARWFFDLWGRGTLVTVSS VL: SYVLTQPPSVSVAPGKTARIPCGGNLIGARLVHWYQQKPGQAPVLIVYDDMDRPSGIPERFSGSNSGNTATLTISRVEAGDEADYYCQVWDTGSRPVVFGGGTKLTVL
14 | – | – | 4.2 fold | 11 nM | 13NG0082 (scFv, V domains shown, purified scFv from the mini-recombination library; member of group m20; also called ZZ0SEF-E03; copies: 1 + 1) VH: QVQLVQSGAEVKKPGASVKVSCKASGYTFTNYGLSWVRQAPGQGLEWMGWINYDGGNTQYGQEFQGRVTMTTDTSTSTAYMELRSLRSDDTAVYYCARDSSSSWARWFFDLWGRGTLVTVSS VL: SYVLTQPPSVSVAPGKTARIPCGGNMVGARLVHWYQQKPGQAPVLIVFDDEDRPSGIPERFSGSNSGNTATLTISRVEAGDEADYYCQVWDTGSRPVVFGGGTKLTVL
15 | – | – | 5.2 fold | 8.88 nM | 13NG0083 (antibody, V domains shown, also called unmodified 13NG0083; WT) VH: QVQLVQSGAEVKKPGASVKVSCKASGYTFTNYGLSWVRQAPGQGLEWMGWINYDGGNTQYGQEFQGRVTMTTDTSTSTAYMELRSLRSDDTAVYYCARDSSSSWARWFFDLWGRGTLVTVSS VL: SYVLTQPPSVSVAPGKTARIPCGGNMVGARLVHWYQQKPGQAPVLIVFDDEDRPSGIPERFSGSNSGNTATLTISRVEAGDEADYYCQVWDTGSSPVVFGGGTKLTVL
16 | – | – | 4.3 fold | 10.7 nM | 13NG0084 (scFv, V domains shown, purified scFv from the mini-recombination library; member of group m20; also called ZZ0SED-F07; copies: 1 + 1) VH: QVQLVQSGAEVKKPGASVKVSCKASGYTFTNYGLSWVRQAPGQGLEWMGWINYDGGNTQYGQEFQGRVTMTTDTSTSTAYMELRSLRSDDTAVYYCARDSSSSWARWFFDLWGRGTLVTVSS VL: SYVLTQPPSVSVAPGKTARIPCGGNLIAARLVHWYQQKPGQAPVLIVFDDEDRPSGIPERFSGSNSGNTATLTISRVEAGDEADYYCQVWDTGSSPVVFGGGTKLTVL
17 | – | – | 4.2 fold | 10.8 nM | 13NG0085 (scFv, V domains shown, purified scFv from the mini-recombination library; member of group m20; also called ZZ0SEF-G10; copies: 1 + 1) VH: QVQLVQSGAEVKKPGASVKVSCKASGYTFTNYGLSWVRQAPGQGLEWMGWINYDGGNTQYGQEFQGRVTMTTDTSTSTAYMELRSLRSDDTAVYYCARDSSSSWARWFFDLWGRGTLVTVSS VL: SYVLTQPPSVSVAPGKTARIPCGGNMVGARLVHWYQQKPGQAPVLIIMDDIDRPSGIPERFSGSNSGNTATLTISRVEAGDEADYYCQVWDTGSRPVVFGGGTKLTVL
18 | – | – | 3.2 fold | 14.2 nM | 13NG0086 (scFv, V domains shown, purified scFv from the mini-recombination library; member of group m20; also called ZZ0SEB-F04; copies: 1 + 1) VH: QVQLVQSGAEVKKPGASVKVSCKASGYTFTNYGLSWVRQAPGQGLEWMGWINYDGGNTQYGQEFQGRVTMTTDTSTSTAYMELRSLRSDDTAVYYCARDSSSSWARWFFDLWGRGTLVTVSS VL: SYVLTQPPSVSVAPGKTARIPCGGNMVGARLVHWYQQKPGQAPVLIVYDDMDRPSGIPERFSGSNSGNTATLTISRVEAGDEADYYCQVWDTGSRPVVFGGGTKLTVL
19 | – | – | 6.5 fold | 7.11 nM | 13NG0087 (scFv, V domains shown, purified scFv from the mini-recombination library; member of group m20; also called ZZ0SEF-E05; copies: 1 + 1) VH: QVQLVQSGAEVKKPGASVKVSCKASGYTFTNYGLSWVRQAPGQGLEWMGWINYDGGNTQYGQEFQGRVTMTTDTSTSTAYMELRSLRSDDTAVYYCARDSSSSWARWFFDLWGRGTLVTVSS VL: SYVLTQPPSVSVAPGKTARIPCGGNMVAARLVHWYQQKPGQAPVLIMFDDQDRPSGIPERFSGSNSGNTATLTISRVEAGDEADYYCQVWDTGSLPVVFGGGTKLTVL
